To fix the notation:
B1: chimeric anti human CD4-antibody (chimeric IgG4) (antibody, V domains shown)
VH: EVQLQQSGTVLARPGASVQMSCKASGYSFANYWMHWVKQRPGQGLQWIGALYPGNVDTTYNQKFKDKAKLTAVTSASTAYMELSSLTNEDSAVYYCTRMGTTLEAPLDYWGQGTTLTVSS
VL: QIVLTQSPAIMSASPGEKVAMTCSARSSVSYLYWYQQKPGSSPRLLIYDTSNLASGVPVRFIGSGSGTSYSLTISRMEAEDAATYYCQQWSDYPLTFGAGTKLELK
notes: Mouse VH and VL were cloned into pANTVhG4 (human genomic IgG4 constant region) and pANTVk (human kappa constant region) and expressed in NS0 cells; also called chimeric anti-CD4 antibody; chimeric antibody
B2: monoclonal mouse anti human CD4-antibody 30F16H5 (antibody, mouse IgG1, V domains shown)
VH: EVQLQQSGTVLARPGASVQMSCKASGYSFANYWMHWVKQRPGQGLQWIGALYPGNVDTTYNQKFKDKAKLTAVTSASTAYMELSSLTNEDSAVYYCTRMGTTLEAPLDYWGQGTTLTVSS
VL: QIVLTQSPAIMSASPGEKVAMTCSARSSVSYLYWYQQKPGSSPRLLIYDTSNLASGVPVRFIGSGSGTSYSLTISRMEAEDAATYYCQQWSDYPLTFGAGTKLELK
notes: also called Max16H5; Max.16H5
B3: modified anti-CD4 antibody VH3/VK4 (antibody, V domains shown)
VH: EVQLQQSGSELKRPGASVKMSCKASGYTFANYWMHWVKQAPGQGLQWIGALYPGNVDTTYNQKFKDKAKLTAVTSASTAYMELSSLTNEDTAVYYCTRMGTTLEAPLDYWGQGTLVTVSS
VL: QIVLTQSPAILSASPGEKAAMTCSARSSVSYLYWYQQKPGSSPRLLIYDTSNLASGVPSRFIGSGSGTDYSLTISSMEAEDAATYYCQQWSDYPLTFGAGTKLEIK
B4: modified anti-CD4 antibody VH1/VK1 (antibody, V domains shown)
VH: EVQLQQSGSELKRPGASVKVSCKASGYTFANYWMHWVRQAPGQGLQWIGALYPGNVDTTYNQKFKDKAKITRDTSASTAYMELSSLTNEDTAVYYCTRMGTTLEAPLDYWGQGTLVTVSS
VL: QIVLTQSPATLSASPGEKAAMTCSARSSVSYLYWYQQKPGSSPRALIYDTSNLASGVPSRFSGSGSGTDYSLTISSMEAEDAATYYCQQWSDYPLTFGAGTKLEIK
notes: VK1=20, VK2=18, VK3=16, VK4=14
B5: modified anti-CD4 antibody VH2/VK4 (antibody, V domains shown)
VH: EVQLQQSGSELKRPGASVKVSCKASGYTFANYWMHWVKQAPGQGLQWIGALYPGNVDTTYNQKFKDKAKLTADTSASTAYMELSSLTNEDTAVYYCTRMGTTLEAPLDYWGQGTLVTVSS
VL: QIVLTQSPAILSASPGEKAAMTCSARSSVSYLYWYQQKPGSSPRLLIYDTSNLASGVPSRFIGSGSGTDYSLTISSMEAEDAATYYCQQWSDYPLTFGAGTKLEIK
B6: modified anti-CD4 antibody VH1/VK4 (antibody, V domains shown)
VH: EVQLQQSGSELKRPGASVKVSCKASGYTFANYWMHWVRQAPGQGLQWIGALYPGNVDTTYNQKFKDKAKITRDTSASTAYMELSSLTNEDTAVYYCTRMGTTLEAPLDYWGQGTLVTVSS
VL: QIVLTQSPAILSASPGEKAAMTCSARSSVSYLYWYQQKPGSSPRLLIYDTSNLASGVPSRFIGSGSGTDYSLTISSMEAEDAATYYCQQWSDYPLTFGAGTKLEIK
B7: modified anti-CD4 antibody VH2/VK1 (antibody, V domains shown)
VH: EVQLQQSGSELKRPGASVKVSCKASGYTFANYWMHWVKQAPGQGLQWIGALYPGNVDTTYNQKFKDKAKLTADTSASTAYMELSSLTNEDTAVYYCTRMGTTLEAPLDYWGQGTLVTVSS
VL: QIVLTQSPATLSASPGEKAAMTCSARSSVSYLYWYQQKPGSSPRALIYDTSNLASGVPSRFSGSGSGTDYSLTISSMEAEDAATYYCQQWSDYPLTFGAGTKLEIK
B8: modified anti-CD4 antibody VH3/VK2 (antibody, V domains shown)
VH: EVQLQQSGSELKRPGASVKMSCKASGYTFANYWMHWVKQAPGQGLQWIGALYPGNVDTTYNQKFKDKAKLTAVTSASTAYMELSSLTNEDTAVYYCTRMGTTLEAPLDYWGQGTLVTVSS
VL: QIVLTQSPATLSASPGEKAAMTCSARSSVSYLYWYQQKPGSSPRLLIYDTSNLASGVPSRFSGSGSGTDYSLTISSMEAEDAATYYCQQWSDYPLTFGAGTKLEIK
B9: modified anti-CD4 antibody VH4/VK4 (antibody, V domains shown)
VH: EVQLQQSGTELKRPGASVKMSCKASGYTFANYWMHWVKQAPGQGLQWIGALYPGNVDTTYNQKFKDKAKLTAVTSASTAYMELSSLTNEDSAVYYCTRMGTTLEAPLDYWGQGTTVTVSS
VL: QIVLTQSPAILSASPGEKAAMTCSARSSVSYLYWYQQKPGSSPRLLIYDTSNLASGVPSRFIGSGSGTDYSLTISSMEAEDAATYYCQQWSDYPLTFGAGTKLEIK
B10: modified anti-CD4 antibody VH4/VK2 (antibody, V domains shown)
VH: EVQLQQSGTELKRPGASVKMSCKASGYTFANYWMHWVKQAPGQGLQWIGALYPGNVDTTYNQKFKDKAKLTAVTSASTAYMELSSLTNEDSAVYYCTRMGTTLEAPLDYWGQGTTVTVSS
VL: QIVLTQSPATLSASPGEKAAMTCSARSSVSYLYWYQQKPGSSPRLLIYDTSNLASGVPSRFSGSGSGTDYSLTISSMEAEDAATYYCQQWSDYPLTFGAGTKLEIK
B11: modified anti-CD4 antibody VH2/VK2 (antibody, V domains shown)
VH: EVQLQQSGSELKRPGASVKVSCKASGYTFANYWMHWVKQAPGQGLQWIGALYPGNVDTTYNQKFKDKAKLTADTSASTAYMELSSLTNEDTAVYYCTRMGTTLEAPLDYWGQGTLVTVSS
VL: QIVLTQSPATLSASPGEKAAMTCSARSSVSYLYWYQQKPGSSPRLLIYDTSNLASGVPSRFSGSGSGTDYSLTISSMEAEDAATYYCQQWSDYPLTFGAGTKLEIK
B12: modified anti-CD4 antibody VH4/VK1 (antibody, V domains shown)
VH: EVQLQQSGTELKRPGASVKMSCKASGYTFANYWMHWVKQAPGQGLQWIGALYPGNVDTTYNQKFKDKAKLTAVTSASTAYMELSSLTNEDSAVYYCTRMGTTLEAPLDYWGQGTTVTVSS
VL: QIVLTQSPATLSASPGEKAAMTCSARSSVSYLYWYQQKPGSSPRALIYDTSNLASGVPSRFSGSGSGTDYSLTISSMEAEDAATYYCQQWSDYPLTFGAGTKLEIK

One assay addresses T1, human CD4 (coated on ELISA plate) (human, UniProt P01730 26-396, limits assumed). In words: competition ELISA, plate-coated CD4, competitor biotinylated mouse anti-CD4 at 0.2 µg/ml. How it is done: The chimeric antibody was tested in an ELISA-based competition assay using mouse anti-CD4 antibody, biotinylated using a B-Tag micro biotinylation kit (Sigma, Poole UK). A dilution series of chimeric IgG4 or control mouse antibody from 10 μg/ml to 0.009 μg/ml was premixed with a constant concentration of biotinylated anti-CD4 (0.2 μg/ml) before incubating 100 μl/well for 1 hour at room temperature in a Nunc MaxiSorp 96 well flat bottom microtitre plate (Fisher, Loughborough, UK) pre-coated with 50 μl/well of 1 μg/ml CD4. The binding of the biotinylated mAb was determined by incubating for 1 h at room temperature with 100 μl/well of a 1/500 dilution of streptavidin-HRP (Sigma), followed by detection with 100 μl/well OPD substrate (Sigma). After stopping the reaction with 50 μl/well 3M HCl, absorbance at 490 nm was measured using a Dynex Technologies (Worthing, UK) MRX TC II plate reader.
Therefore the correct variable region sequences have been identified and cloned.
In general terms: An ELISA detects its analyte on a solid surface through an enzyme-linked reagent.
Turning to B1, the IC50 (as a rule, the point on the concentration scale where inhibition reaches its midpoint) was 0.25 µg/mL.

B2 came in with an IC50 of 0.18 µg/mL.

The target of the next assay is T1, human CD4 (coated on ELISA plate). Briefly: competition ELISA, plate-coated human CD4, competitor biotinylated mouse antibody at 0.2 µg/ml.
Take B3: the “Relative Binding (IC50 of test sample divided by IC50 of mouse antibody)” value amounted to 1.44 fold.

For B4, the “Relative Binding (IC50 of test sample divided by IC50 of mouse antibody)” value was determined as 0.14 fold.

For the molecule B5, the “Relative Binding (IC50 of test sample divided by IC50 of mouse antibody)” value stood at 1.44 fold.

With B6, the “Relative Binding (IC50 of test sample divided by IC50 of mouse antibody)” value amounted to 5.06 fold.

Turning to B7, the “Relative Binding (IC50 of test sample divided by IC50 of mouse antibody)” value is 8.66 fold.

B8: the “Relative Binding (IC50 of test sample divided by IC50 of mouse antibody)” value stood at 1.77 fold.

For B9, the “Relative Binding (IC50 of test sample divided by IC50 of mouse antibody)” value stood at 0.49 fold.

As to B10, the “Relative Binding (IC50 of test sample divided by IC50 of mouse antibody)” value amounted to 0.73 fold.

As for B11, the “Relative Binding (IC50 of test sample divided by IC50 of mouse antibody)” value amounted to 0.96 fold.

Regarding B12, the “Relative Binding (IC50 of test sample divided by IC50 of mouse antibody)” value turned out to be 3.89 fold.

Values taken from patent publication US20130330334A1 (FRAUNHOFER GESELLSCHAFT ZUR F RDERUNG DER ANGEWANDTEN …, published 2013).
